Here are results for 14 molecules from patent publication US20070224189A1 (published 2007).

Usually Kd stands for the equilibrium constant for the complex coming apart. Low readings indicate a tighter complex, high ones a looser complex.

To fix the notation:
B1: S298A/E333A/K334A alemtuzumab (antibody)
heavy: not shown
B2: F241E/F243Y/V262T/V264R/I332E alemtuzumab (antibody)
heavy: DKTHTCPPCPAPELLGGPSVELYPPKPKDTLMISRTPEVTCTVRDVSHEDPEVKFNWYVDGVEVHNAKTKPREEQYNSTYRVVSVLTVLHQDWLNGKEYKCKVSNKALPAPEEKTISKAKGQPREPQVYTLPPSRDELTKNQVSLTCLVKGFYPSDIAVEWESNGQPENNYKTTPPVLDSDGSFFLYSKLTVDKSRWQQGNVFSCSVMHEALHNHYTQKSLSLSPGK
B3: S239D/D265Y/N297D/I332E alemtuzumab (antibody)
heavy: B2 heavy with S19D, E21F, Y23F, T42V, R44V, D45Y, N77D
B4: S239D/A330Y/I332E/K326E trastuzumab (antibody)
heavy: B2 heavy with S19D, E21F, Y23F, T42V, R44V, K106E, A110Y
B5: S239D/A330Y/I332E/L235D trastuzumab (antibody)
heavy: B2 heavy with L15D, S19D, E21F, Y23F, T42V, R44V, A110Y
B6: S239D/I332E/A330I trastuzumab (antibody)
heavy: B2 heavy with S19D, E21F, Y23F, T42V, R44V, A110I
B7: S239D/A330Y/I332E/L234I trastuzumab (antibody)
heavy: B2 heavy with L14I, S19D, E21F, Y23F, T42V, R44V, A110Y
B8: F241Y/F243Y/V262T/V264T alemtuzumab (antibody)
heavy: B2 heavy with E21Y, R44T, E112I
B9: P230A/E233D/I332E trastuzumab (antibody)
heavy: B2 heavy with P10A, E13D, E21F, Y23F, T42V, R44V
B10: S239D/A330Y/I332E/V240I trastuzumab (antibody)
heavy: B2 heavy with S19D, V20I, E21F, Y23F, T42V, R44V, A110Y
B11: F241W/F243W/V262A/V264A alemtuzumab (antibody)
heavy: B2 heavy with E21W, Y23W, T42A, R44A, E112I
B12: F243L/V262I/V264W alemtuzumab (antibody)
heavy: B2 heavy with E21F, Y23L, T42I, R44W, E112I
B13: F241L/F243L/V262I/V264I alemtuzumab (antibody)
heavy: B2 heavy with E21L, Y23L, T42I, R44I, E112I
B14: S239D/A330Y/I332E/V264T trastuzumab (antibody)
heavy: B2 heavy with S19D, E21F, Y23F, T42V, R44T, A110Y

Numbering of substitutions follows the chain as printed. In names and notes the source's numbering stands.

For one assay, the target named is His-tagged V158 FcγRIIIa (human, UniProt P08637 17-208). Kind of assay: SPR, receptor on chip. (In general: Surface plasmon resonance follows binding to a sensor surface in real time, without labels.)
Sequence of His-tagged V158 FcγRIIIa (P08637 17-208 F176V): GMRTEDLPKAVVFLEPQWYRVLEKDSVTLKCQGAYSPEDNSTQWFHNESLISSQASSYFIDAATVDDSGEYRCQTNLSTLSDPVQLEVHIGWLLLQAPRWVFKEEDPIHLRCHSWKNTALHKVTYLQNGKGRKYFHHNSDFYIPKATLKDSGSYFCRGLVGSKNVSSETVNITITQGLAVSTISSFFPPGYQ
B1 had a Kd of 0.039 µM.

The target of another assay is extracellular region of human V158 FcγRIIIa fused with glutathione S-Transferase (GST) (human, UniProt P08637 17-208). Briefly: AlphaScreen competition. (In general: Alpha assays give light when donor and acceptor beads are brought close together.)
Sequence of extracellular region of human V158 FcγRIIIa fused with glutathione S-Transferase (GST) (P08637 17-208 F176V): as above
Take B2: the “FcγRIIIa Fold” value came out at 0.1 fold vs WT.

Turning to B3, the “FcγRIIIa Fold” value is 0.02 fold vs WT.

As for B4, the “FcγRIIIa Fold” value is 64.1 fold vs WT.

Consider B5, for which the “FcγRIIIa Fold” value amounted to 7.04 fold vs WT.

For the molecule B6, the “FcγRIIIa Fold” value is 59.1 fold vs WT.

With B7, the “FcγRIIIa Fold” value turned out to be 22.4 fold vs WT.

With B8, the “FcγRIIIa Fold” value is 0.05 fold vs WT.

Regarding B9, the “FcγRIIIa Fold” value came out at 1.87 fold vs WT.

Consider B10, for which the “FcγRIIIa Fold” value turned out to be 28 fold vs WT.

For the molecule B11, the “FcγRIIIa Fold” value was 0.04 fold vs WT.

Consider B12, for which the “FcγRIIIa Fold” value worked out at 0.02 fold vs WT.

In the case of B13, the “FcγRIIIa Fold” value is 0.09 fold vs WT.

Regarding B14, the “FcγRIIIa Fold” value is 17.7 fold vs WT.

The target in another assay is human F158 FcγRIIIa as used in SPR (human, UniProt P08637 17-208). Briefly: SPR.
Sequence of human F158 FcγRIIIa as used in SPR (P08637 17-208): as the sequence (P08637 17-208 F176V) above, with V160F counted along it
Turning to B1, the Kd came out at 0.156 µM.
